We go through one substance from article PMC11352577.

In assay [1] the target is human KIR3DL1 extracellular domains fused to mouse IgG2a Fc with Avi tag, biotinylated (human) (UniProt P43629). The assay can be described thus: SPR; Biacore T200; biotinylated KIR3DL1 immobilised; IOS-1002 as analyte; HBS-EP, 25 °C; steady-state fits, averaged.
Assay [2] has as its target CD64 (FcγRI) on human primary monocytes and monocyte-derived macrophages (human (endogenous in primary monocytes)) (UniProt P12314).
The target in assay [3] is human KIR3DL1 extracellular domains fused to mouse IgG2a Fc with Avi tag, biotinylated (human) (UniProt P43629). Kind of assay: SPR; Biacore T200; biotinylated receptors immobilised on Series S CAP chip; IOS-1002 as analyte, 5 concentrations 6 to 0.375 uM; HBS-EP, 25 °C; 1:1 fit. (In general: SPR reads the build-up and loss of mass on a sensor chip optically.)

UniProt P43629, sequence (P43629 22-340): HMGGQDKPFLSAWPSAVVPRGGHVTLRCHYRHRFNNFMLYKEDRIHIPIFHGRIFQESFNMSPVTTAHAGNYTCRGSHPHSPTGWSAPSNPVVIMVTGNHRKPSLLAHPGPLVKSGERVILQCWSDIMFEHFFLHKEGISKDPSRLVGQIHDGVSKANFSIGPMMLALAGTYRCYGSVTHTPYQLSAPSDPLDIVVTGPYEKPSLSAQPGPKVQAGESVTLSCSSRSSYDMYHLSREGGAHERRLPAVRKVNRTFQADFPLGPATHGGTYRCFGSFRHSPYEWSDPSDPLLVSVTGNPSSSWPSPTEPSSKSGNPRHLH
UniProt P12314, sequence (P12314 16-374): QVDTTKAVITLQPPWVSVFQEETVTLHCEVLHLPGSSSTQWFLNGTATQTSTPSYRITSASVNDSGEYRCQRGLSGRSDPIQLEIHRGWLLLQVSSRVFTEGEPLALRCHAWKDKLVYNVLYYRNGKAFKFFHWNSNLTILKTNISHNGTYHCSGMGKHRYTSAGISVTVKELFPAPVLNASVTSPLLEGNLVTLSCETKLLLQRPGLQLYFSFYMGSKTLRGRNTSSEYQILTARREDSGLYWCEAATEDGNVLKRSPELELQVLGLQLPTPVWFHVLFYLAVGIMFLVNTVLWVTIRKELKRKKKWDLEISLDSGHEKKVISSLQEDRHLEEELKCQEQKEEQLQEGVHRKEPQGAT

By Kd is commonly meant the equilibrium constant for the complex coming apart. A higher Kd goes with a looser complex. Consider “IOS-1002 (HLA-B57^(A46E/V97R).B2m-IgG4_Fc) (from UniProt P61769 21-119) (Fc fusion)”, for which the Kd in assay [1] came out at 7.48 µM; in assay [3], 3.28 µM. Besides, the macrophage phagocytosis of H460 cells, dose response (EC50) in assay [2] turned out to be 0.00333 µM.
